From US11162087B2, “Beta-glucosidase, enzyme composition including same, and method for manufacturing sugar solution using same” (RIKEN, priority 2017, dated 2021)

How the values were obtained:
[1] = β-glucosidase activity measurement with pNP-Glc; format: biochemical; settings: cell-free extract, volume reduced to one-twelfth by ultrafilter membrane; detection limit 0.075
Experimental: In the present invention, “β-glucosidase” means an enzyme that catalyzes a reaction for hydrolysis degradation of a sugar β-glucoside bond. In the present invention, a method for measuring a β-glucosidase activity utilizes a reaction using p-nitrophenyl-β-D-glucopyranoside (pNP-Glc) as a substrate. Specifically, an enzyme liquid is added to a substrate solution prepared by dissolving pNP-Glc in 50 mM acetic acid-sodium acetate buffer solution (pH 5.0) and reacted at 30° C. for 10 minutes; and the reaction is stopped by well mixing with 2M sodium carbonate in an amount equivalent to one-tenth of a reaction system volume to measure an increase of the absorbance at 405 nm. When p-nitrophenol is released and the absorbance at 405 nm is increased after the above reaction, it is determined that the β-glucosidase activity is present.
10 μL of an enzyme diluted solution was added to and reacted with 90 μL of 50 mM acetic acid buffer containing 1 mM p-nitrophenyl-β-glucopyranoside (manufactured by Sigma-Aldrich Japan) at 30° C. for 10 minutes. Thereafter, 10 μL of 2M sodium carbonate was added and well mixed to stop the reaction, and an increase of absorbance at 405 nm was measured. The activity to release 1 μmol of p-nitrophenol per minute was defined as 1 U. For a blank, 10 μL of 2M sodium carbonate was added to and well mixed with 90 μL of 50 mM sodium acetate buffer containing 1 mM p-nitrophenyl-β-glucopyranoside, and thereafter, 10 μL of an enzyme diluted solution was added to cause a reaction at 30° C. for 30 minutes. Thereafter, an increase of absorbance at 405 nm was measured. At this time, the enzyme liquid was diluted so as not to exceed an absorbance at 405 nm of 1. In addition, a calibration curve was created based on absorbances measured by preparing p-nitrophenol solutions at concentrations of 0.1 mM, 0.2 mM, 1 mM and 2 mM; using 10 μL of them instead of an enzyme diluted solution; and adding and well mixing 10 μL of 2M sodium carbonate for color development.

[2] = Inhibitory action of glucose on the β-glucosidase activity; format: biochemical; settings: 1 mM pNP-Glc, 30° C., 100 minutes
Source text: The β-glucosidase derived from a protist of the genus Pseudotrichonympha of the present invention is preferably less likely to suffer from inhibition by glucose on the 3-glucosidase activity. Specifically, when the β-glucosidase activity in the absence of glucose is taken unity, the β-glucosidase activity under a condition of a glucose concentration of 8 g/L (or in the presence of 8 g/L glucose) is preferably 0.5 or more, more preferably 0.6 or more, more preferably 0.7 or more, more preferably 0.8 or more, more preferably 0.9 or more, more preferably 1.0 or more, more preferably 1.1 or more, more preferably 1.2 or more, more preferably 1.3 or more, and in particular preferably 1.4 or more. Further, in addition to the β-glucosidase activity under the condition of the glucose concentration of 8 g/L, when the β-glucosidase activity in the absence of glucose is taken as unity, the β-glucosidase activity under a condition of a glucose concentration of 20 g/L (or in the presence of 20 g/L glucose) is preferably 0.5 or more, more preferably 0.6 or more, and in particular preferably 0.7 or more. The method used herein for measuring the β-glucosidase activity is the same as the above-described method except that 8 g/L or 20 g/L of glucose is added at the time of measuring; and results obtained thereby are used.
An enzyme solution was added to a mixture solution containing 1 mM p-nitrophenyl-β-glucopyranoside (manufactured by Sigma-Aldrich Japan), 50 mM acetic acid buffer and 0, 4, 8 or 20 g/L glucose such that the total amount of the reaction solution became 100 μL, causing a reaction at 30° C. for 100 minutes. Thereafter, 10 μL of 2M sodium carbonate was added and well mixed to stop the reaction, and an increase of absorbance at 405 nm was measured. The activity to release 1 μmol of p-nitrophenol per minute was defined as 1 U. For a blank, 10 μL of 2M sodium carbonate was added to an amount, equivalent to that of the above mixture solution for the reaction solution before addition of the enzyme solution, of a mixture solution containing 1 mM p-nitrophenyl-β-glucopyranoside, 50 mM sodium acetate buffer and 0, 4, 8 or 20 g/L glucose, and mixed well; and then, the enzyme solution was added such that the total solution amount of the blank became 110 μL, causing a reaction at 30° C. for 30 minutes. Thereafter, an increase of absorbance at 405 nm was measured.
In accordance with Reference Example 8, the inhibitory action of glucose on the β-glucosidase activity was measured in enzyme compositions: containing the β-glucosidase and the genus Trichoderma filamentous fungus-derived cellulase prepared in Example 10; and the cell-free extract of β-glucosidase mutant gene transformed E. coli prepared in Example 5. For a comparative control, only the genus Trichoderma filamentous fungus-derived cellulase was used, and the inhibitory action of glucose on the β-glucosidase activity was measured in the same manner. […] That is, both of the enzyme composition containing the β-glucosidase of the present invention and the genus Trichoderma filamentous fungus-derived cellulase, and the cell-free extract of β-glucosidase mutant gene transformed E. coli were less likely to suffer from inhibition on the β-glucosidase activity by glucose, compared to only the genus Trichoderma filamentous fungus-derived cellulase, and the enzyme composition of Comparative Example 1 containing the genus Aspergillus filamentous fungus-derived β-glucosidase and the genus Trichoderma filamentous fungus-derived cellulase.

B1: Mutant 2: His-tagged polypeptide of SEQ ID NO: 8, 80% identity with SEQ ID NO: 1; tested as cell-free extract of transformed E. coli (protein)
chain: QIEGLINVMTLEEKVGQMAQLAIDLFIDVPTDTVIPEAARKGIIDYKIGSILNTYGGVSHSKEVWTYINAEFYKYTEETDLKIPILYGLDSIHGANFVNNFTSFPQQIGMAATFNPSLLKEGSRISAYETRAASVGWVFSPVMDLGLDPRWPRIWEGFGEDPYLSSQFGIASVHGFQGKDPNLIDEFHVAACAKHYLAYSNPFTGKDRTPAILSDIFIREYHLPSFKAAVDAGVASVMVNSGLINGIPTHMNHYLLTTVLKEELGFQGVIVTDWQDIENIHTRDHLAPTQKDAVKLAINAGIDMSMIPYNYDFIDYLIELVHEGEVSIDRINDAVRRILKMKAKMNLWDLPVTKSEDYPEFGSEAHANASYTAASESITLLKNENSTLPLAKNTKVLVVGPNSNSHRSLNGGWSYSWQGNAGVQYAVQYNTIYQAIQKVNGEENTVFSQGVRYIETGNYYEDEEVNISESVALARDVDYIILALGENTYTEKPGDLSDLEISQNQIDLAKALASTGKPIILVLNQGRPRIISRIEQLVSAILWIYWPGNYGGDALADILFGDVNPSGKLPVTYPRYSASL
modifications: His tag; amino acid sequence having 80% sequence identity with amino acid sequence of SEQ ID NO 1
notes: tested as cell-free extract of transformed E. coli
For B1, the “Increase of absorbance (405 nm)” value [1] was 0.365, the “BGL activity (relative value) in the presence of 8 g/L glucose when BGL activity in the absence of glucose is taken as unity” value ([2]; 8 g/L glucose) was 0.74 and the “BGL activity (relative value) in the presence of 20 g/L glucose when BGL activity in the absence of glucose is taken as unity” value ([2]; 20 g/L glucose) was 0.72.
